# Earlier results as cited in patent US20230312927A1, “POLY(SARCOSINE) POLYMER EXCIPIENTS” (CALUSA BIO, LLC, priority 2021, published 2023).
# Test system: anti-drug antibodies (ADAs)
# Conditions: share of anti-drug antibodies that are neutralizing; van Schie et al. Ann. Rheum. Dis. 2015
row,Substance,ADAs shown to be neutralizing [%]
1,infliximab [Remicade],90
2,adalimumab [Humira],97
